From patent US20260167959A1, “APTAZYME-BASED REGULATABLE GENE EXPRESSION SYSTEMS” (REJUVENATE BIO INC, priority 2022, published 2026)

B1: RA281 (nucleic acid)
DNA: GCGCGTCCTGGATTCGCGGAAACGCGTACATCCAGCTGACGAGTCCCAAATACGAGAATACCAGCATCGTCTTGATGCCCTTGGAAGTCTCGGGACGAAACGCGC
modifications: expressed or natural sequence
B2: RA282 (nucleic acid)
DNA: GCGCGTCCTGGATTCGCGAGAATACCAGCATCGTCTTGATGCCCTTGGAAGTCTCGCGGAAACGCGTACATCCAGCTGACGAGTCCCAAATAGGACGAAACGCGC
modifications: expressed or natural sequence
B3: RA279 (nucleic acid)
DNA: GCGCGTCCTGGATTCGCGGAAACGCGTACATCCAGCTGACGAGTCCCAAATAGGACGACGAGAATACCAGCATCGTCTTGATGCCCTTGGAAGTCTCGAACGCGC
modifications: expressed or natural sequence
B4: RA027 (nucleic acid)
DNA: GCGCGTCCTGGATTCGCGGAAACGCGTACAGTGATACCAGCATCGTCTTGATGCCCTTGGCAGCACTATCCAGCTGACGAGTCCCAAATAGGACGAAACGCGC
modifications: expressed or natural sequence
B5: RA283 (nucleic acid)
DNA: GCGCGTCCTGGAAGAATACCAGCATCGTCTTGATGCCCTTGGAAGTCTTTCGCGGAAACGCGTACATCCAGCTGACGAGTCCCAAATAGGACGAAACGCGC
modifications: expressed or natural sequence
B6: RA278 (nucleic acid)
DNA: GCGCGTCCTGGATTCGAGTGATACCAGCATCGTCTTGATGCCCTTGGCAGCACTCGGAAACGCGTACATCCAGCTGACGAGTCCCAAATAGGACGAAACGCGC
modifications: expressed or natural sequence
B7: RA275 (nucleic acid)
DNA: GCGCGTCCTGGATTGAGAATACCAGCATCGTCTTGATGCCCTTGGAAGTCTCCGCGGAAACGCGTACATCCAGCTGACGAGTCCCAAATAGGACGAAACGCGC
modifications: expressed or natural sequence
B8: RA277 (nucleic acid)
DNA: GCGCGTCCTGGATTCGCGGAAACGCGTACATCCGAGAATACCAGCATCGTCTTGATGCCCTTGGAAGTCTCAGCTGACGAGTCCCAAATAGGACGAAACGCGC
modifications: expressed or natural sequence
B9: RA276 (nucleic acid)
DNA: GCGCGTCCTGGATTCGCGGAAACGCGTACATCCAGCTGACGAAGAATACCAGCATCGTCTTGATGCCCTTGGAAGTCTGTCCCAAATAGGACGAAACGCGC
modifications: expressed or natural sequence
B10: RA002 (nucleic acid)
DNA: GCGCGTCCTGGATTCGCGGAAACGCGTACATCCAGCTGACGAGTCCCAAATAGGACGAAACGAGAATACCAGCATCGTCTTGATGCCCTTGGAAGTCTCGCGCGC
modifications: expressed or natural sequence
B11: RA280 (nucleic acid)
DNA: GCGCGTCCTGGATTCGCGGAAACGCGTACATCCAGCTGACGAGTCCCAAATAGGAGGAATACCAGCATCGTCTTGATGCCCTTGGAAGTCCCGAAACGCGC
modifications: expressed or natural sequence

The molecules below were run on Renilla luciferase RNA (assay: Barcoded aptazyme variant library screen: un-cleaved Renilla luciferase RNA by barcode read counts, HEK293-T cells). Conditions: un-cleaved Renilla luciferase RNA, HEK293-T cells cultured with 1 mM theophylline (ON) over without theophylline (OFF); barcode read counts, triplicate.
Assay type: cell-based
From the text: Based on the findings from Example 1, an aptazyme variant library was generated from the T3H48 ribozyme with one of seven variant theophylline aptamers inserted sequentially after each nucleotide of the DNA sequence encoding the T3H48 ribozyme sequence. […] The seven variant theophylline aptamers vary in their communication channels, which are the ribonucleotides of the aptamer that attach to the ribozyme sequence (see, Table 2).
The library was barcoded with unique sequences of nine nucleotides flanked by forward and reverse primer amplification sequences.
The aptazyme library was then PCR amplified and cloned into the psiCHECK™-2 dual luciferase vector in the 3′ UTR of the Renilla luciferase gene. […] The next day, the cells were isolated followed by DNA and RNA extraction using standard methods. The purified RNA was then converted to cDNA and the barcoded portion of the aptazyme library was PCR amplified. Similarly, the DNA was PCR amplified and all the samples were sequenced. All experimental conditions (with theophylline and without theophylline) were performed in triplicate. The read count for each barcode was determined with a custom build code and the data was normalized to identify the un-cleaved fractions of the Renilla luciferase RNA from cells that were cultured in the presence or absence of theophylline for each aptazyme, which was used to obtain the fold-change between ON- and OFF-states (FIG. 2).

In order of rising “Fold change in RNA expression between the ON state and the OFF state” value:
1. B1  1.0 fold
2. B2  1.0 fold
3. B3  1.0 fold
4. B5  1.0 fold
5. B6  1.0 fold
6. B7  1.0 fold
7. B8  1.0 fold
8. B9  1.0 fold
9. B11  1.0 fold
10. B4  2.4 fold

B10 was tested, and the “Fold change in RNA expression between the ON state and the OFF state” value was over 6 fold.
